Results reported in patent US20220125837A1, “METHODS FOR CONTROLLED ELIMINATION OF THERAPEUTIC CELLS” (Bellicum Pharmaceuticals, Inc., priority 2014, published 2022).
Positions count from the first letter of the chain named. Numbers in names are those of the source. Entries after “also recorded” stand apart in the source; their conditions may differ.

B1: D330A-N405Q: modified Caspase-9 polypeptide having a substitution at position 330 and a substitution at position 405 (protein, UniProt P55211 1-416, looked up, variant D330A N405Q)
chain: MDEADRRLLRRCRLRLVEELQVDQLWDALLSRELFRPHMIEDIQRAGSGSRRDQARQLIIDLETRGSQALPLFISCLEDTGQDMLASFLRTNRQAAKLSKPTLENLTPVVLRPEIRKPEVLRPETPRPVDIGSGGFGDVGALESLRGNADLAYILSMEPCGHCLIINNVNFCRESGLRTRTGSNIDCEKLRRRFSSLHFMVEVKGDLTAKKMVLALLELAQQDHGALDCCVVVILSHGCQASHLQFPGAVYGTDGCPVSVEKIVNIFNGTSCPSLGGKPKLFFIQACGGEQKDHGFEVASTSPEDESPGSNPEPDATPFQEGLRTFDQLAAISSLPTPSDIFVSYSTFPGFVSWRDPKSGSWYVETLDDIFEQWAHSEDLQSLLLRVANAVSVKGIYKQMPGCFQFLRKKLFFKTS
modifications: iCasp9, fused to FKBP12 F36V domain
B2: N405F: chimeric modified Caspase-9 polypeptide (protein, UniProt P55211 1-416, looked up, variant N405F)
chain: B1 chain with A330D, Q405F
modifications: fused to FKBP12 F36V dimerization domain
notes: chimeric modified Caspase-9 polypeptide
B3: ^402GCFNF^406ISAQT: Caspase-9 polypeptide with the equivalent 5 residues from Caspase-10 (protein, UniProt P55211 1-416, looked up, variant G402I C403S F404A N405Q F406T)
chain: B1 chain with A330D, G402I, C403S, F404A, F406T
B4: D327G: chimeric modified Caspase-9 polypeptide (protein)
chain: VDGFGDVGALESLRGNADLAYILSMEPCGHCLIINNVNFCRESGLRTRTGSNIDCEKLRRRFSSLHFMVEVKGDLTAKKMVLALLELARQDHGALDCCVVVILSHGCQASHLQFPGAVYGTDGCPVSVEKIVNIFNGTSCPSLGGKPKLFFIQACGGEQKDHGFEVASTSPEDESPGSNPEPDATPFQEGLRTFGQLDAISSLPTPSDIFVSYSTFPGFVSWRDPKSGSWYVETLDDIFEQWAHSEDLQSLLLRVANAVSVKGIYKQMPGCFNFLRKKLFFKTSASRA
B5: D327K: chimeric modified Caspase-9 polypeptide (protein)
chain: B4 chain with G195K
B6: D327R: chimeric modified Caspase-9 polypeptide (protein)
chain: B4 chain with G195R
B7: F326K: chimeric modified Caspase-9 polypeptide (protein)
chain: B4 chain with F194K, G195D
B8: Q328K: chimeric modified Caspase-9 polypeptide (protein)
chain: B4 chain with G195D, Q196K
B9: Q328R: chimeric modified Caspase-9 polypeptide (protein)
chain: B4 chain with G195D, Q196R
B10: L329K: chimeric modified Caspase-9 polypeptide (protein)
chain: B4 chain with G195D, L197K
B11: L329G: chimeric modified Caspase-9 polypeptide (protein)
chain: B4 chain with G195D, L197G
B12: A331K: chimeric modified Caspase-9 polypeptide (protein)
chain: B4 chain with G195D, A199K
B13: T317C: chimeric modified Caspase-9 polypeptide (protein)
chain: B4 chain with T185C, G195D
B14: F319A: chimeric modified Caspase-9 polypeptide (protein, UniProt P55211 1-416, looked up, variant F319A)
chain: B1 chain with F319A, A330D, Q405N
modifications: fused to FKBP12 F36V dimerization domain
notes: as for B2
B15: T317A: chimeric modified Caspase-9 polypeptide (protein)
chain: B4 chain with T185A, G195D
B16: A316G: chimeric modified Caspase-9 polypeptide (protein)
chain: B4 chain with A184G, G195D
B17: F319W: chimeric modified Caspase-9 polypeptide (protein, UniProt P55211 1-416, looked up, variant F319W)
chain: B1 chain with F319W, A330D, Q405N
modifications: fused to FKBP12 F36V dimerization domain
notes: as for B2
B18: S144A: chimeric modified Caspase-9 polypeptide (protein)
chain: B4 chain with S12A, G195D
B19: S144D: chimeric modified Caspase-9 polypeptide (protein)
chain: B4 chain with S12D, G195D
B20: S196D: chimeric modified Caspase-9 polypeptide (protein)
chain: B4 chain with S64D, G195D
B21: S183A: chimeric modified Caspase-9 polypeptide (protein)
chain: B4 chain with S51A, G195D
B22: S196A: chimeric modified Caspase-9 polypeptide (protein)
chain: B4 chain with S64A, G195D
B23: D330N: chimeric modified Caspase-9 polypeptide (protein)
chain: B4 chain with G195D, D198N
B24: D330V: chimeric modified Caspase-9 polypeptide (protein)
chain: B4 chain with G195D, D198V
B25: D330G: chimeric modified Caspase-9 polypeptide (protein)
chain: B4 chain with G195D, D198G

Each molecule was assayed on HEK293T/16 cells (assay: Secreted alkaline phosphatase (SEAP) surrogate killing assay of iCasp9 mutants). Settings: 1 μg iCasp9 per million cells; no AP1903; higher SEAP = lower basal activity.
Type: cell-based, human
Protocol: Early passage HEK293T/16 cells (ATCC, Manassas, Va.) were maintained in IMDM, GlutaMAX™ (Life Technologies, Carlsbad, Calif.) supplemented with 10% FBS, 100 U/mL penicillin, and 100 U/mL streptomycin until transfection in a humidified, 37° C., 5% CO2/95% air atmosphere. Cells in logarithmic-phase growth were transiently transfected with 800 ng to 2 μg of expression plasmid encoding iCasp9 mutants and 500 ng of an expression plasmid encoding SRα promoter driven SEAP per million cells in 15-mL conical tubes. […] GeneJammer® Transfection Reagent at a ratio of 3 μl per ug of plasmid DNA was used to transiently transfect HEK293T/16 cells in the absence of antibiotics. 100 μl or 2 mL of the transfection mixture was added to each well in 96-well or 6-well plate, respectively.
Briefly, after 65° C. heat denaturation for 45 minutes to reduce background caused by endogenous (and serum-derived) alkaline phosphatases that are sensitive to heat, 5 μl of supernatants was added to 95 μl of PBS and added to 100 μl of substrate buffer, containing 1 μl of 100 mM 4-methylumbelliferyl phosphate (4-MUP; Sigma, St. Louis, Mo.) re-suspended in 2 M diethanolamine. Hydrolysis of 4-MUP by SEAP produces a fluorescent substrate with excitation/emission (355/460 nm), which can be easily measured. […] 1000-ul of the mixture was seeded onto each well of a 96-well plate. […] For the assay, 4-methylumbelliferyl phosphate substrate was hydrolyzed by SEAP to 4-methylumbelliferon, a metabolite that can be excited with 364 nm and detected with an emission filter of 448 nm. Since SEAP is used as a marker for cell viability, reduced SEAP reading corresponds with increased iCaspase-9 activities.
In the case of B1, the “relative SEAP activity Units (basal activity)” value is reported as 205772.

Same assay, conditions: 2 μg iCasp9 per million cells; no AP1903
In the case of B1, the “relative SEAP activity Units (basal activity)” value is reported as 174366.

Same assay, conditions: SEAP assay without AP1903; relative to wild type Caspase-9
For B1, the “basal activity, in words” value was “intermediate”.
In the case of B2, the “basal activity, in words” value is reported as “lowered basal activity”.
For B3, the “basal activity, in words” value was “reduced basal activity”.
In the case of B4, the “basal activity, in words” value is reported as “did not lower basal activity”.
In the case of B5, the “basal activity, in words” value is reported as “did not lower basal activity”.
For B6, the “basal activity, in words” value was “did not lower basal activity”.
In the case of B7, the “basal activity, in words” value is reported as “did not lower basal activity”.
B8 was tested, and the “basal activity, in words” value was “did not lower basal activity”.
B9 was tested, and the “basal activity, in words” value was “did not lower basal activity”.
With B10 the “basal activity, in words” value was “did not lower basal activity”.
In the case of B11, the “basal activity, in words” value is reported as “did not lower basal activity”.
For B12, the “basal activity, in words” value was “did not lower basal activity”.
With B13 the “basal activity, in words” value was “no effect”.
In the case of B14, the “basal activity, in words” value is reported as “no effect”.
For B15, the “basal activity, in words” value was “lower basal activity; also recorded: reduce basal activity”.
For B16, the “basal activity, in words” value was “lower basal activity”.
With B17 the “basal activity, in words” value was “lower basal activity”.
B18 was tested, and the “basal activity, in words” value was “lower basal activity”.
In the case of B19, the “basal activity, in words” value is reported as “lower basal activity”.
B20 was tested, and the “basal activity, in words” value was “lower basal activity”.
B21 was tested, and the “basal activity, in words” value was “lower basal activity”.
B22 was tested, and the “basal activity, in words” value was “lower basal activity”.
In the case of B23, the “basal activity, in words” value is reported as “less basal activity than wild type Caspase-9”.
B24 was tested, and the “basal activity, in words” value was “less basal activity than wild type Caspase-9”.
In the case of B25, the “basal activity, in words” value is reported as “less basal activity than wild type Caspase-9”.

Same assay, conditions: SEAP assay without AP1903; relative to wild type Caspase-9; listed as iCasp9 D330A N405Q
In the case of B1, the “basal activity, in words” value is reported as “low to undetectable basal activity”.
